In general, Kd refers to the concentration at which binding is half-saturated. A low value points to a tighter complex.

Experimental findings from PMC2845643 (2011) are described below.

What all share (experiment): IAANS fluorescence titration
Assay [1] addresses cardiac troponin C (V44Q TnC IAANS T53C) (Homo sapiens, UniProt P63316).
Assay [2] deals with cardiac troponin C (L48Q TnC IAANS T53C) (Homo sapiens, UniProt P63316).
For assay [3], the target named is cardiac troponin C (M45Q TnC IAANS T53C) (Homo sapiens, UniProt P63316).
Assay [4] concerns the target cardiac troponin C (TnC IAANS T53C) (Homo sapiens, UniProt P63316).
Assay [5] concerns the target cardiac troponin C (F20Q TnC IAANS T53C) (Homo sapiens, UniProt P63316).

B1: cardiac troponin I peptide TnI128-180 128-180 (protein)
chain: LTQKIFDLRGKFKRPTLRRVRISADAMMQALLGARAKESLDLRAHLKQVKKED
Consider B1, for which the Kd was 262 nM in assay [1]; 268 nM in assay [2]; 289 nM in assay [3]; 200 nM in assay [4]; 318 nM in assay [5].
